{
  "source": "paper PMC5137450",
  "binders": {"B1": {"name": "(CUG)20 (structured_RNA)", "RNA": "CUGCUGCUGCUGCUGCUGCUGCUGCUGCUGCUGCUGCUGCUGCUGCUGCUGCUGCUGCUG"}, "B2": {"name": "Atp2a1 intron 22 RNA (145 nt) (structured_RNA)", "RNA": "GGGCACCCCUGCGGUCACUUGCGCGCGCUCGCAGCUCUCCCUGGAGCCACUGCUGCUGUUGCCACUGCCCGCUUCCACAUGAGGGCCAUGCCGUUACUGUGGGCACUGGCAGCUGUGAGGCUGUGUCCUGGCCGUCCAGUCUGCU"}},
  "assay_in_all_cases": "filter binding",
  "key": {"MBNL3 [1]": {"target": "T1, MBNL3 (human, UniProt Q9NUK0 1-257)", "T1 sequence": "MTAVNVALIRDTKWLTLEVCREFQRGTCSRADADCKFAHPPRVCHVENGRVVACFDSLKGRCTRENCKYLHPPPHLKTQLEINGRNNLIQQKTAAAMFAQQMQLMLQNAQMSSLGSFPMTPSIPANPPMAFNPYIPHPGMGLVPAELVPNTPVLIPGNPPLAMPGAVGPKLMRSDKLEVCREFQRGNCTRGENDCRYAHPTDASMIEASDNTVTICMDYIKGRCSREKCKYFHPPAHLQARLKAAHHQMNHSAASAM"}, "MBNL1 [2]": {"target": "T2, MBNL1 (UniProt Q9NR56 1-260)", "T2 sequence": "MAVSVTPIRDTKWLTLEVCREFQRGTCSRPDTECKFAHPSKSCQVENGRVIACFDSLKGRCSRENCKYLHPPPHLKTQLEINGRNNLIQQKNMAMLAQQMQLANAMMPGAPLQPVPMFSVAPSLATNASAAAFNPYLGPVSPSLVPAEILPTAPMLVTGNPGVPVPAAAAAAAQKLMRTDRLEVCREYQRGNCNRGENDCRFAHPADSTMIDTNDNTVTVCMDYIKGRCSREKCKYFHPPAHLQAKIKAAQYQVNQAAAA"}, "MBNL2 [3]": {"target": "T3, MBNL2 (human, UniProt Q5VZF2 1-268)", "T3 sequence": "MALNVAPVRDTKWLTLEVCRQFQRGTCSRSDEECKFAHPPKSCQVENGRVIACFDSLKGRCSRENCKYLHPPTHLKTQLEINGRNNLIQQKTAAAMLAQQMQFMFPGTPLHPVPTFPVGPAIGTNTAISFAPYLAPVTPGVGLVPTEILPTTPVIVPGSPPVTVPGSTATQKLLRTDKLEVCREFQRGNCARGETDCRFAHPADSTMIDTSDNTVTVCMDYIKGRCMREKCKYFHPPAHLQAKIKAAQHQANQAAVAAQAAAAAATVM"}, "MBNL3 [4]": {"target": "T1, MBNL3", "remark": "listed apart in the source"}, "MBNL1 [5]": {"target": "T2, MBNL1", "remark": "listed apart in the source"}, "MBNL2 [6]": {"target": "T3, MBNL2", "remark": "listed apart in the source"}},
  "data": [
    {"binder": "B1", "values": [
      {"measurement": "Kd", "setting": "MBNL3 [1]", "value": "~7.75", "unit": "nM"},
      {"measurement": "Kd", "setting": "MBNL1 [2]", "value": "~7.75", "unit": "nM"},
      {"measurement": "Kd", "setting": "MBNL2 [3]", "value": "~7.75", "unit": "nM"}
    ]},
    {"binder": "B2", "values": [
      {"measurement": "binding result", "setting": "MBNL3 [4]", "value": "binds"},
      {"measurement": "binding result", "setting": "MBNL1 [5]", "value": "binds"},
      {"measurement": "binding result", "setting": "MBNL2 [6]", "value": "binds"}
    ]}
  ]
}
